# Measurements as given in EP4755914A1 (CSPC Megalith Biopharmaceutical Co., Ltd., dated 2025).
# Tests used:
# ROR1 antigen = target: T1, ROR1 antigen (UniProt Q01973 30-403, limits assumed); experiment: BLI (Octet RED96e), antibody on sensor, ROR1 antigen from 100 nM in 2-fold dilutions
# T1 construct: construct not described
# [1] = target: T2, ROR1 protein (ACROBiosystems, Cat# RO1-H5223) (UniProt Q01973 308-395); experiment: ELISA on ROR1 protein, anti-IgG secondary antibody, OD450
# T2 construct: Bought protein
# T2 sequence (Q01973 308-395 limits assumed): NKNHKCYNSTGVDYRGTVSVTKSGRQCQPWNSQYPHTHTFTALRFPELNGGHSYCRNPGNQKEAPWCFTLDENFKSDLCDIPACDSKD
# [2] = target: T3, ROR1 on stably transgenic ROR1-expressing cells MDA-MB-231-ROR1 (UniProt Q01973 30-937, limits assumed); experiment: flow cytometry on MDA-MB-231-ROR1 cells
# T3 construct: whole, on cells
# T3 sequence (Q01973 30-937 limits assumed): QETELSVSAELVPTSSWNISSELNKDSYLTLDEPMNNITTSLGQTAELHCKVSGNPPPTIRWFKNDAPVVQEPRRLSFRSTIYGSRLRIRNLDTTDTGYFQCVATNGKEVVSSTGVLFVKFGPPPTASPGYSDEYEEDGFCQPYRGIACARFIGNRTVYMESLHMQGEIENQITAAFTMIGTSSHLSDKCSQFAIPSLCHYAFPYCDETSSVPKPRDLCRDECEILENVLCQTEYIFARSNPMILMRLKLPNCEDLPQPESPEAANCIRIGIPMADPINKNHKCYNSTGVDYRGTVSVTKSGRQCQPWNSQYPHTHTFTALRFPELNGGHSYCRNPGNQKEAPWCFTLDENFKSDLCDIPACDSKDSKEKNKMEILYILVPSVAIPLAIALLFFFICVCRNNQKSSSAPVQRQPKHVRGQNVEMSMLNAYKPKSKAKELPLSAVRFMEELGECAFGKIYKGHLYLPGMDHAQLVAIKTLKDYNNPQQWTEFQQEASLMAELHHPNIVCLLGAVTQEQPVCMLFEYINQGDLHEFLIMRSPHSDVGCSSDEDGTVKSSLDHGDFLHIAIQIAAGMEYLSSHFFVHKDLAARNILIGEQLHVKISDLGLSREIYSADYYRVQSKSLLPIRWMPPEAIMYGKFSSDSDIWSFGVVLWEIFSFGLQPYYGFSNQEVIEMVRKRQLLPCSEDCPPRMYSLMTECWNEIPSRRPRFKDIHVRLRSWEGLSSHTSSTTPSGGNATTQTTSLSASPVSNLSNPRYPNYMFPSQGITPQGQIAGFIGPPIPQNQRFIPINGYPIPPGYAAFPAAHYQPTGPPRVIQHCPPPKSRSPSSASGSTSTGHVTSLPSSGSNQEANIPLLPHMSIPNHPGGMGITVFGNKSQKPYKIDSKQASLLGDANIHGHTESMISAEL
# T1 sequence (Q01973 30-403 limits assumed): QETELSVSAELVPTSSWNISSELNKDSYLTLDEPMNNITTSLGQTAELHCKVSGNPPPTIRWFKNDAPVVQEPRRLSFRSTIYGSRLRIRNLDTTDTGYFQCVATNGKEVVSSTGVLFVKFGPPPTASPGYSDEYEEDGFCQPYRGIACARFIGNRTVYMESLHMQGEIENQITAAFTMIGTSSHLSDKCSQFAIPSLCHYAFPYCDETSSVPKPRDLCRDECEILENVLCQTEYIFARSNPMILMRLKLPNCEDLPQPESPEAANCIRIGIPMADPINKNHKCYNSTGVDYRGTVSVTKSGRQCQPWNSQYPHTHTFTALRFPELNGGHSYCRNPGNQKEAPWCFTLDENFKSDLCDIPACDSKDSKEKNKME
Kd (ROR1 antigen) [nM],koff (ROR1 antigen) [s⁻¹],kon (ROR1 antigen) [M⁻¹ s⁻¹],EC50 [1] [µg/mL],EC50 [2] [µg/mL],Binder
14.8,0.0105,708000,0.00136,0.0988,"murine antibody 17-F12-G8-A6 (antibody, V domains shown) VH: EVTLKESGPGILQPSQTLSLTCSFSGFSLSTSGMGVAWIRQPSGKGLEWLAHIWWDDDKRYNPALKSRLTISKDTSSNQVFLKIASVDTADTATYYCARPQFITTVVAFYWYFDVWGAGTTVTVSS VL: DILLTQSPASLSVSMGETVTITCRASENIYSNLAWYQQKQGKSPQLLVYAATNLADGVPSRFSGSGSGTQYSLKINSLQSEDFGSYYCQHFWGTPWTFGGGTKLEIK"
32.4,0.0279,859000,0.0014,0.107,"humanized antibody hu17-H3L1 (antibody, human IgG1, kappa, L234A L235A, V domains shown) VH: QVTLKESGPTLVKPTQTLTLTCSFSGFSLSTSGMGVAWIRQPPGKALEWLAHIWWDDDKRYNPSLKSRLTITKDTSKNQVVLTMTNMDPVDTATYYCARPQFITTVVAFYWYFDVWGQGTTVTVSS VL: DILLTQSPSSLSVSVGDRVTITCRASENIYSNLAWYQQKPGKAPKLLVYAATNLADGVPSRFSGSGSGTQYTLTISSLQPEDFATYYCQHFWGTPWTFGGGTKLEIKR"
20,0.0147,738000,0.00116,0.101,"humanized antibody hu17-H4L1 (antibody, human IgG1, kappa, L234A L235A, V domains shown) VH: QVTLKESGPTLVKPTQTLTLTCTFSGFSLSTSGMGVAWIRQPPGKALEWLAHIWWDDDKRYGPSLKSRLTITKDTSKNQVVLTMTNMDPVDTATYYCARPQFITTVVAFYWYFDVWGQGTTVTVSS VL: DILLTQSPSSLSVSVGDRVTITCRASENIYSNLAWYQQKPGKAPKLLVYAATNLADGVPSRFSGSGSGTQYTLTISSLQPEDFATYYCQHFWGTPWTFGGGTKLEIKR"
22.7,0.0185,814000,0.00142,0.114,"humanized antibody hu17-H2L1 (antibody, human IgG1, kappa, L234A L235A, V domains shown) VH: EVTLKESGPTLVKPTQTLTLTCSFSGFSLSTSGMGVAWIRQPPGKALEWLAHIWWDDDKRYNPALKSRLTITKDTSKNQVVLTITNVDPVDTATYYCARPQFITTVVAFYWYFDVWGQGTTVTVSS VL: DILLTQSPSSLSVSVGDRVTITCRASENIYSNLAWYQQKPGKAPKLLVYAATNLADGVPSRFSGSGSGTQYTLTISSLQPEDFATYYCQHFWGTPWTFGGGTKLEIKR"
